# Patent US11618906B2, “Hydroxylation techniques” (HYPHA DISCOVERY LTD., priority 2018, dated 2023)
# How the values were obtained:
# Format in all cases: biochemical
# [1] = Hydroxylation of diclofenac catalysed by cytochrome P450 aluC09 and mutants (UPLC-PDA-MS); conditions: for 4′,5-dihydroxy-diclofenac 1.38 mins / 4′-hydroxy-diclofenac (1) 1.62 mins / 5-hydroxy-diclofenac (2) 1.58 mins / Diclofenac (Substrate) 1.81 mins: % by UV peak area at 275 nm, 0.125 mg/ml substrate, 27° C., 16-20 hours; for Hydroxylated Ratio hydroxy 1:hydroxy 2: diclofenac, ratio of UV peak areas at 275nm
# How it was run: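 Lyophilised CYP450aluC09 or mutants, with ferredoxin aluF03 and reductase SCF15A, incubated 16-20 hours at 27° C with 0.125 mg/ml diclofenac in 50 mM potassium phosphate pH 7.4, 5 mM MgCl2, and G6P/NADP/G6PDH regeneration. Acetonitrile-extracted; conversion by UPLC-PDA-MS against authentic hydroxylated standards.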
# [2] = Hydroxylation of flufenamic acid catalysed by cytochrome P450 aluC09 and mutants; conditions: for Flufenamic Acid (Substrate) 1.93 mins / Hydroxy-Flufenamic Acid (1) 1.69 mins / Hydroxy-Flufenamic Acid (2) 1.65 mins: % by UV peak area at 275 nm, 0.125 mg/ml substrate, 27° C., 16-20 hours; for Hydroxylated Ratio 1:2: flufenamic acid, ratio of UV peak areas at 275 nm
# How it was run: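 Lyophilised CYP450aluC09 mutants with ferredoxin aluF03 and reductase SCF15A, in 50 mM potassium phosphate pH 7.4, 5 mM MgCl2, 0.125 mg/ml flufenamic acid, G6P/NADP/G6PDH NADPH regeneration. Shaken 16-20 h at 27° C; acetonitrile-quenched, conversion to two hydroxy products by UPLC-MS.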
# [3] = Hydroxylation of aceclofenac catalysed by cytochrome P450 aluC09 and mutants; conditions: for Aceclofenac (Substrate) (1.80 mins) / Dihydroxy-Aceclofenac (1.42 mins) / Hydroxy-Aceclofenac (1) (1.64 min) / Hydroxy-Aceclofenac (2) (1.60 min): % by UV peak area at 275 nm, 0.125 mg/ml substrate, 27° C., 16-20 hours; for Hydroxylated Ratio 2:1: aceclofenac, ratio of UV peak areas at 275 nm
# How it was run: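 Conversion was assessed by UPLC-MS (UV and MS detection) after acetonitrile extraction of reactions run 16-20 h at 27° C, shaking. Reactions contained substrate at 0.125 mg/ml, P450 mutant plus ferredoxin and reductase partners, 1 mM NADP with glucose-6-phosphate regeneration, in phosphate buffer pH 7.4.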
# [4] = Hydroxylation / de-N-ethylation of napropamide catalysed by cytochrome P450 aluC09 and mutants; conditions: for Desethyl Napropamide (1.62 min) / Desethyl-hydroxy-Napropamide (1.41 min) / Hydroxy-Napropamide (1) (1.53 min) / Hydroxy-Napropamide (2), (1.52 min) / M-2Da (unidentified) (1.89 min) / Napropamide (substrate): % by UV peak area at 275 nm, 0.125 mg/ml substrate, 27° C., 16-20 hours; for Hydroxylated Ratio 2:1: napropamide, ratio of UV peak areas
# How it was run: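 Conversion of napropamide (0.125 mg/ml) to hydroxylated and de-ethylated metabolites was measured by UPLC-MS after acetonitrile extraction. Reactions ran 16-20 h at 27° C in pH 7.4 potassium phosphate (50 mM) with 5 mM MgCl2, 1 mM NADP, 5 mM G6P and 2 UN/ml G6PDH. Enzymes were lyophilised P450 aluC09 variants, ferredoxin aluF03 and ferredoxin reductase SCF15A.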
# [5] = O-demethylation of indomethacin catalysed by cytochrome P450 aluC09 and mutants; conditions: % by UV peak area at 275 nm; 0.125 mg/ml substrate, 27° C., 16-20 hours
# How it was run: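 Lyophilised CYP450aluC09 mutants with ferredoxin aluF03 and reductase SCF15A, 0.125 mg/ml substrate, 50 mM potassium phosphate pH 7.4, 5 mM MgCl2, G6P/G6PDH/NADP recycling. Shaken 16-20 h at 27° C. Acetonitrile-quenched, conversion measured by UPLC-MS.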
# [6] = Metabolism of ritonavir by P450 aluC09 and mutants; conditions: percent of substrate being converted; 0.125 mg/ml, 27° C., 16-20 hours; [CYP] per enzyme as in Table 8
# How it was run: (§1)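 Biotransformation: CYP aluC09 mutant + ferredoxin aluF03 + reductase SCF15A, 0.125 mg/ml substrate, KPi 50 mM pH 7.4, MgCl2 5 mM, G6P/NADP/G6PDH recycling; 27° C, 16-20 h shaking; MeCN quench, UPLC-MS conversion.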
# [7] = Metabolism of celecoxib by P450 aluC09 and mutants; conditions: percent of substrate being converted; 0.125 mg/ml, 27° C., 16-20 hours; [CYP] per enzyme as in Table 8
# How it was run: as §1
# [8] = Metabolism of epothilone B by P450 aluC09 and mutants; conditions: percent of substrate being converted; 0.125 mg/ml, 27° C., 16-20 hours; [CYP] per enzyme as in Table 8
# How it was run: as §1
# [9] = Metabolism of buparvaquone by P450 aluC09 and mutants; conditions: percent of substrate being converted; 0.125 mg/ml, 27° C., 16-20 hours; [CYP] per enzyme as in Table 8
# Protocol: Lyophilised material of mutants of CYP450aluC09, ferredoxinaluF03 and ferredoxin reductaseSCF15A was made as described in examples 3 and 4 and suspended in water (0.5 mL per vial) and biocatalysis was performed at 27° C. in the following conditions: 50 mM potassium phosphate pH 7.4, 5 mM MgCl2, 0.125 mg/ml substrate compound such as diclofenac (Sigma-Aldrich, UK), Aceclofenac (Tokyo Chemical Industry UK Ltd, UK), Indomethacin (Sigma-Aldrich, UK), Flufenamic acid (Sigma-Aldrich, UK), Napropamide (Sigma-Aldrich, UK), celecoxib (LC Laboratories, USA), valsartan (Tokyo Chemical Industry UK Ltd, UK), ruxolitinib (LC Laboratories, USA), 4-pyrrolidylacetophenone (Sigma-Aldrich, UK), tofacitinib (LC Laboratories, USA), bosentan (CarboSynth Ltd, UK), buparvaquone (MedChemtronica, Sweden), BIRB796 (Stratech Scientific Limited, UK), epothilone B (LC Laboratories, USA), ritonavir (Tokyo Chemical Industry UK Ltd, UK) or tivantinib (MedChemtronica, Sweden), P450AluC09 (concentration as in Table 8), 5 mM G6P, 1 mM NADP, 2 UN/ml G6PDH in a final volume of 100 μL. After 16-20 hours at 200 rpm (5 cm orbital shaker, Kuhner AG, Switzerland), reactions were extracted with an equal volume of acetonitrile, centrifuged to remove precipitated proteins and conversion assessed by UPLC-MS analysis.
# However, of particular note when considering P450 concentration are the results for mutants M12, M20 and M34, as well as the deleterious impact on the range of substrate utility in mutants M39 and M40.
# [10] = Metabolism of BIRB796 by P450 aluC09 and mutants; conditions: percent of substrate being converted; 0.125 mg/ml, 27° C., 16-20 hours; [CYP] per enzyme as in Table 8
# How it was run: as §1
# [11] = Metabolism of bosentan by P450 aluC09 and mutants; conditions: percent of substrate being converted; 0.125 mg/ml, 27° C., 16-20 hours; [CYP] per enzyme as in Table 8
# How it was run: as §1
# [12] = Metabolism of valsartan by P450 aluC09 and mutants; conditions: percent of substrate being converted; 0.125 mg/ml, 27° C., 16-20 hours; [CYP] per enzyme as in Table 8
# How it was run: as §1
# [13] = Metabolism of ruxolitinib by P450 aluC09 and mutants; conditions: percent of substrate being converted; 0.125 mg/ml, 27° C., 16-20 hours; [CYP] per enzyme as in Table 8
# How it was run: as §1
# [14] = Metabolism of 4-pyrrolidylacetophenone by P450 aluC09 and mutants; conditions: percent of substrate being converted; 0.125 mg/ml, 27° C., 16-20 hours; [CYP] per enzyme as in Table 8
# How it was run: as §1
# [15] = Metabolism of tivantinib by P450 aluC09 and mutants; conditions: percent of substrate being converted; 0.125 mg/ml, 27° C., 16-20 hours; [CYP] per enzyme as in Table 8
# How it was run: as §1
# [16] = Metabolism of tofacitinib by P450 aluC09 and mutants; conditions: percent of substrate being converted; 0.125 mg/ml, 27° C., 16-20 hours; [CYP] per enzyme as in Table 8
# How it was run: as §1
Molecule,"4′,5-dihydroxy-diclofenac 1.38 mins [1]",4′-hydroxy-diclofenac (1) 1.62 mins [1],5-hydroxy-diclofenac (2) 1.58 mins [1],Diclofenac (Substrate) 1.81 mins [1],Hydroxylated Ratio hydroxy 1:hydroxy 2 [1],Flufenamic Acid (Substrate) 1.93 mins [2],Hydroxy-Flufenamic Acid (1) 1.69 mins [2],Hydroxy-Flufenamic Acid (2) 1.65 mins [2],Hydroxylated Ratio 1:2 [2],Aceclofenac (Substrate) (1.80 mins) [3],Dihydroxy-Aceclofenac (1.42 mins) [3],Hydroxy-Aceclofenac (1) (1.64 min) [3],Hydroxy-Aceclofenac (2) (1.60 min) [3],Hydroxylated Ratio 2:1 [3],Desethyl Napropamide (1.62 min) [4],Desethyl-hydroxy-Napropamide (1.41 min) [4],Hydroxy-Napropamide (1) (1.53 min) [4],"Hydroxy-Napropamide (2), (1.52 min) [4]",M-2Da (unidentified) (1.89 min) [4],Napropamide (substrate) [4],further results
"aluC09M38: cytochrome P450 aluC09 mutant T291H; amino acid sequence SEQ ID NO: 64 (protein, listed as Amycolatopsis lurida) MTDVEETTATLPLARKCPFSPPPEYERLRRESPVSRVGLPSGQTAWALTRLEDIREMLSSPHFSSDRQSPSFPLMVARQIRREDKPFRPSLIAMDPPEHSRARRDVVGEFTVKRMKALQPRIQQIVDEHLDALLAGPKPADLVQALSLPVPSLVICELLGVPYSDHEFFQSCSSRMLSREVTAEERMTAFEQLENYLDELVTKKEANATEDDLLGRQILKQRETGEADHGELVGLAFLLLIAGHETTANMISLGTVTLLENPDQLAKIKADPGKTLAAIEELLRVFTIAEHATSRFATADVEIGGTLIRAGEGVVGLSNAGNHDPDGFENPDTFDIERGARHHVAFGFGVHQCLGQNLARLELQIVFDTLFRRVPGLRIAVPVDELPFKHDSTIYGLHALPVTW",2.9%,44.5%,18.9%,35.6%,2.4,95.3%,2.9%,1.8%,1.6,29.8%,28.9%,11.9%,29.4%,2.5,45.6%,3.8%,1.0%,3.9%,6.2%,41.1%,Hydroxylated Ratio 2:1 [4]: 3.9; Indomethacin (1.74 mins) [5]: 83.8%; O-demethyl-Indomethacin (1.52 mins) [5]: 16.2%; % conversions (avg) Ritonavir [6]: 64.2%; % conversions (avg) Celecoxib [7]: 2.3%; % conversions (avg) Epothilone B [8]: 13.4%; % conversions (avg) Buparvaquone [9]: 4.1%; % conversions (avg) BIRB796 [10]: 13.6%; % conversions (avg) Bosentan [11]: 98.7%; % conversions (avg) Valsartan [12]: 61.9%; % conversions (avg) Ruxolitinib [13]: 30.8%; % conversions (avg) 4-pyrrolidylacetophenone [14]: 2.9%; % conversions (avg) Tivantinib [15]: 27.6%; % conversions (avg) Tofacitinib [16]: 0.7%
"aluC09: wild-type cytochrome P450 aluC09 from Amycolatopsis lurida NRRL-2430; amino acid sequence SEQ ID NO: 2 (protein, listed as Amycolatopsis lurida) MTDVEETTATLPLARKCPFSPPPEYERLRRESPVSRVGLPSGQTAWALTRLEDIREMLSSPHFSSDRQSPSFPLMVARQIRREDKPFRPSLIAMDPPEHSRARRDVVGEFTVKRMKALQPRIQQIVDEHLDALLAGPKPADLVQALSLPVPSLVICELLGVPYSDHEFFQSCSSRMLSREVTAEERMTAFEQLENYLDELVTKKEANATEDDLLGRQILKQRETGEADHGELVGLAFLLLIAGHETTANMISLGTVTLLENPDQLAKIKADPGKTLAAIEELLRVFTIAETATSRFATADVEIGGTLIRAGEGVVGLSNAGNHDPDGFENPDTFDIERGARHHVAFGFGVHQCLGQNLARLELQIVFDTLFRRVPGLRIAVPVDELPFKHDSTIYGLHALPVTW",3.1%,27.0%,26.2%,45.2%,1.0,93.1%,4.5%,2.4%,1.9,18.0%,36.5%,5.7%,39.8%,7.0,44.8%,5.4%,2.0%,4.0%,6.6%,39.3%,Hydroxylated Ratio 2:1 [4]: 2.1; Indomethacin (1.74 mins) [5]: 83.6%; O-demethyl-Indomethacin (1.52 mins) [5]: 16.4%; % conversions (avg) Ritonavir [6]: 59.6%; % conversions (avg) Celecoxib [7]: 2.5%; % conversions (avg) Epothilone B [8]: 18.4%; % conversions (avg) Buparvaquone [9]: 14%; % conversions (avg) BIRB796 [10]: 13.4%; % conversions (avg) Bosentan [11]: 98.8%; % conversions (avg) Valsartan [12]: 28.9%; % conversions (avg) Ruxolitinib [13]: 46.6%; % conversions (avg) 4-pyrrolidylacetophenone [14]: 5.6%; % conversions (avg) Tivantinib [15]: 41.4%; % conversions (avg) Tofacitinib [16]: 1.4%
"aluC09M12: cytochrome P450 aluC09 mutant T291E; amino acid sequence SEQ ID NO: 12 (protein, listed as Amycolatopsis lurida) MTDVEETTATLPLARKCPFSPPPEYERLRRESPVSRVGLPSGQTAWALTRLEDIREMLSSPHFSSDRQSPSFPLMVARQIRREDKPFRPSLIAMDPPEHSRARRDVVGEFTVKRMKALQPRIQQIVDEHLDALLAGPKPADLVQALSLPVPSLVICELLGVPYSDHEFFQSCSSRMLSREVTAEERMTAFEQLENYLDELVTKKEANATEDDLLGRQILKQRETGEADHGELVGLAFLLLIAGHETTANMISLGTVTLLENPDQLAKIKADPGKTLAAIEELLRVFTIAEEATSRFATADVEIGGTLIRAGEGVVGLSNAGNHDPDGFENPDTFDIERGARHHVAFGFGVHQCLGQNLARLELQIVFDTLFRRVPGLRIAVPVDELPFKHDSTIYGLHALPVTW",1.8%,30.3%,10.8%,58.0%,2.8,95.9%,2.0%,2.1%,0.9,25.2%,27.8%,7.9%,39.1%,4.9,46.0%,9.7%,2.5%,5.3%,5.8%,34.1%,Hydroxylated Ratio 2:1 [4]: 2.1; Indomethacin (1.74 mins) [5]: 94.6%; O-demethyl-Indomethacin (1.52 mins) [5]: 5.4%; % conversions (avg) Ritonavir [6]: 31.9%; % conversions (avg) Celecoxib [7]: 5.4%; % conversions (avg) Epothilone B [8]: 50.8%; % conversions (avg) Buparvaquone [9]: 9.7%; % conversions (avg) BIRB796 [10]: 23%; % conversions (avg) Bosentan [11]: 100%; % conversions (avg) Valsartan [12]: 38%; % conversions (avg) Ruxolitinib [13]: 48.9%; % conversions (avg) 4-pyrrolidylacetophenone [14]: 30.8%; % conversions (avg) Tivantinib [15]: 7.2%; % conversions (avg) Tofacitinib [16]: 0%
